According to US20260116937A1:

How the values were obtained:
[1] = target: C3b (human) (UniProt P01024); test: ELISA
[2] = target: C3b (human) (UniProt P01024); test: ELISA; culture supernatant

C3b (human), sequence (P01024 749-1663, chain 1 of 2): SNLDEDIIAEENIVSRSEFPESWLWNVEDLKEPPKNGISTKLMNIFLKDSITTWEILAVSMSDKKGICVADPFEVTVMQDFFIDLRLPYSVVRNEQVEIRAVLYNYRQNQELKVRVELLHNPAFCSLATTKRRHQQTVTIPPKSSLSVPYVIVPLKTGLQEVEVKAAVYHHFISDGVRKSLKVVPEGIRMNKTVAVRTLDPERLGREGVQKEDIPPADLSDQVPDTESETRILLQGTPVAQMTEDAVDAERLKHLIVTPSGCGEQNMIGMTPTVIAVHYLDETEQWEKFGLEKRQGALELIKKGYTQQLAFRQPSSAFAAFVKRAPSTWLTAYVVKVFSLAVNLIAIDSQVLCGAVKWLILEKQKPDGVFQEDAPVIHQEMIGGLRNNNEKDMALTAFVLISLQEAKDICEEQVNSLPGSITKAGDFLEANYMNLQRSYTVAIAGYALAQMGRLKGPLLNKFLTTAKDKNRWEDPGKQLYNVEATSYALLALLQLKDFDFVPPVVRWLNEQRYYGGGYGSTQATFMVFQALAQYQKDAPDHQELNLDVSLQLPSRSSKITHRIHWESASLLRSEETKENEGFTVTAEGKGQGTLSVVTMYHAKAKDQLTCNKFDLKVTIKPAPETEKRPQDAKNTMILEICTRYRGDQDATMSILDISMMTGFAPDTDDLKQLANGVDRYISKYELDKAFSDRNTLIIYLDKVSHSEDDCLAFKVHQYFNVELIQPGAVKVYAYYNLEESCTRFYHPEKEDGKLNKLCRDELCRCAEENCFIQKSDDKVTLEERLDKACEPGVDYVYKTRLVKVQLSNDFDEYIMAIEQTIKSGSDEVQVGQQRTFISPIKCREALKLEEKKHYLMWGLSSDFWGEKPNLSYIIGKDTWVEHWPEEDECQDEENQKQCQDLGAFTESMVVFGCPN
C3b (human), sequence (P01024 23-667, chain 2 of 2): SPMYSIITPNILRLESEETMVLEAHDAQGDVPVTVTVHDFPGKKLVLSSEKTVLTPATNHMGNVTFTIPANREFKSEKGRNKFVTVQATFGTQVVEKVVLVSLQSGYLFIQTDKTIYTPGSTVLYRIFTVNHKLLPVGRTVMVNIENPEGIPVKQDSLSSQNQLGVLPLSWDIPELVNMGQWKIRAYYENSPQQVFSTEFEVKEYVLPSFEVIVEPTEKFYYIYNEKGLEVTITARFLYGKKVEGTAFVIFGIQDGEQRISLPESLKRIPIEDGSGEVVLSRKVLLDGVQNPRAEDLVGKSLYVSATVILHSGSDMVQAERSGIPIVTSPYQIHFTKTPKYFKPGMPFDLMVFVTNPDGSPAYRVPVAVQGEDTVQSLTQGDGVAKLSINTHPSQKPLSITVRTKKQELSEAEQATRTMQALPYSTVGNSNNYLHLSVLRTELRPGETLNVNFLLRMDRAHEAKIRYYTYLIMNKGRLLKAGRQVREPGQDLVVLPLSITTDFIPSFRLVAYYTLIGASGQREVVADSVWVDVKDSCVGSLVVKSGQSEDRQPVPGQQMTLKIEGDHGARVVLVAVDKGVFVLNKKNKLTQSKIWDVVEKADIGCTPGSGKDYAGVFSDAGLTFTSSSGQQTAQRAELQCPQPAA

EC50 [1]: 7.1 nM | EC50 [2]: 6.9 nM
Substance: Factor H-like protein 1 (FHL-1) (from UniProt P08603 19-445)
